Measurements as given in patent US20070032417A1, “Peptides and therapeutic uses thereof” (priority 2002, published 2007).
Bridges are numbered along the chain shown (N, C = ends).

Target: GST tagged Bcl w delta C29 protein (UniProt Q92843)
Assay: AlphaScreen competition, GST detection; competitor biotinylated Bim BH3-26 peptide

Ac-IWIAQELRRIGDEFNA-NH2 (linker 6-13 via ‑NHCH2C(═O)(CH2)2NH2‑) gave an IC50 of 300 pM.
